Abundance fitness data for 36 variants are collected here from the Human Domainome abundance scans (Beltran et al. 2025).

± gives the uncertainty stated by the source.

B1: Retinoic acid receptor RXR-alpha, residues 132 to 208; numbered along this chain, P19793 (parent)
chain: KHICAICGDRSSGKHYGVYSCEGCKGFFKRTVRKDLTYTCRDNKDCLIDKRQRNRCQYCRYQKCLAMGMKREAVQEE

The variants in the series derive from B1. The series can be described thus: abundance fitness (aPCA) (normalised: wild type 0, dead -1); higher = more abundant; growth selection in yeast, the domain comes from the species named. The note with it: Homo sapiens.
In the case of KHICAICGDRSSDKHYGVYSCEGCKGFFKRTVRKDLTYTCRDNKDCLIDKRQRNRCQYCRYQKCLAMGMKREAVQEE [G13D], the abundance fitness was 0.019 ± 0.048.

As to KHICAICGDRSSHKHYGVYSCEGCKGFFKRTVRKDLTYTCRDNKDCLIDKRQRNRCQYCRYQKCLAMGMKREAVQEE [G13H], the abundance fitness stood at 0.025 ± 0.081.

For the variant KHICAICGDRSSEKHYGVYSCEGCKGFFKRTVRKDLTYTCRDNKDCLIDKRQRNRCQYCRYQKCLAMGMKREAVQEE [G13E], the abundance fitness was determined as 0.059 ± 0.044.

With KHICAICGDRSSAKHYGVYSCEGCKGFFKRTVRKDLTYTCRDNKDCLIDKRQRNRCQYCRYQKCLAMGMKREAVQEE [G13A], the abundance fitness was found to be 0.02 ± 0.035.

Consider KHICAICGDRSSCKHYGVYSCEGCKGFFKRTVRKDLTYTCRDNKDCLIDKRQRNRCQYCRYQKCLAMGMKREAVQEE [G13C], for which the abundance fitness is -0.707 ± 0.16.

Turning to KHICAICGDRSSFKHYGVYSCEGCKGFFKRTVRKDLTYTCRDNKDCLIDKRQRNRCQYCRYQKCLAMGMKREAVQEE [G13F], the abundance fitness is -0.114 ± 0.092.

Turning to KHICAICGDRVSGKHYGVYSCEGCKGFFKRTVRKDLTYTCRDNKDCLIDKRQRNRCQYCRYQKCLAMGMKREAVQEE [S11V], the abundance fitness is -0.179 ± 0.027.

As for KHICAICGDRQSGKHYGVYSCEGCKGFFKRTVRKDLTYTCRDNKDCLIDKRQRNRCQYCRYQKCLAMGMKREAVQEE [S11Q], the abundance fitness was -0.101 ± 0.032.

Consider KHICAICGDRYSGKHYGVYSCEGCKGFFKRTVRKDLTYTCRDNKDCLIDKRQRNRCQYCRYQKCLAMGMKREAVQEE [S11Y], for which the abundance fitness is -0.096 ± 0.027.

In the case of KHICAICGDRISGKHYGVYSCEGCKGFFKRTVRKDLTYTCRDNKDCLIDKRQRNRCQYCRYQKCLAMGMKREAVQEE [S11I], the abundance fitness was -0.113 ± 0.031.

KHICAICGDRRSGKHYGVYSCEGCKGFFKRTVRKDLTYTCRDNKDCLIDKRQRNRCQYCRYQKCLAMGMKREAVQEE [S11R]: the abundance fitness is -0.162 ± 0.025.

For the variant KHICAICGDRWSGKHYGVYSCEGCKGFFKRTVRKDLTYTCRDNKDCLIDKRQRNRCQYCRYQKCLAMGMKREAVQEE [S11W], the abundance fitness is -0.066 ± 0.031.

Consider KHICAICGDRMSGKHYGVYSCEGCKGFFKRTVRKDLTYTCRDNKDCLIDKRQRNRCQYCRYQKCLAMGMKREAVQEE [S11M], for which the abundance fitness is -0.111 ± 0.032.

Take KHICAICGDRGSGKHYGVYSCEGCKGFFKRTVRKDLTYTCRDNKDCLIDKRQRNRCQYCRYQKCLAMGMKREAVQEE [S11G]: the abundance fitness is -0.116 ± 0.026.

For the variant KHICAICGDRHSGKHYGVYSCEGCKGFFKRTVRKDLTYTCRDNKDCLIDKRQRNRCQYCRYQKCLAMGMKREAVQEE [S11H], the abundance fitness was -0.019 ± 0.035.

For KHICAICGDRPSGKHYGVYSCEGCKGFFKRTVRKDLTYTCRDNKDCLIDKRQRNRCQYCRYQKCLAMGMKREAVQEE [S11P], the abundance fitness is 0.072 ± 0.03.

For KHICAICGDRLSGKHYGVYSCEGCKGFFKRTVRKDLTYTCRDNKDCLIDKRQRNRCQYCRYQKCLAMGMKREAVQEE [S11L], the abundance fitness is -0.142 ± 0.024.

With KHICAICGDRNSGKHYGVYSCEGCKGFFKRTVRKDLTYTCRDNKDCLIDKRQRNRCQYCRYQKCLAMGMKREAVQEE [S11N], the abundance fitness was -0.084 ± 0.029.

KHICAICGDRTSGKHYGVYSCEGCKGFFKRTVRKDLTYTCRDNKDCLIDKRQRNRCQYCRYQKCLAMGMKREAVQEE [S11T]: the abundance fitness is -0.089 ± 0.028.

Consider KHICAICGDRSWGKHYGVYSCEGCKGFFKRTVRKDLTYTCRDNKDCLIDKRQRNRCQYCRYQKCLAMGMKREAVQEE [S12W], for which the abundance fitness is -0.072 ± 0.047.

Take KHICAICGDRSFGKHYGVYSCEGCKGFFKRTVRKDLTYTCRDNKDCLIDKRQRNRCQYCRYQKCLAMGMKREAVQEE [S12F]: the abundance fitness was -0.112 ± 0.082.

For the variant KHICAICGDRSEGKHYGVYSCEGCKGFFKRTVRKDLTYTCRDNKDCLIDKRQRNRCQYCRYQKCLAMGMKREAVQEE [S12E], the abundance fitness was determined as 0.101 ± 0.049.

With KHICAICGDRSAGKHYGVYSCEGCKGFFKRTVRKDLTYTCRDNKDCLIDKRQRNRCQYCRYQKCLAMGMKREAVQEE [S12A], the abundance fitness was 0.044 ± 0.041.

Regarding KHICAICGDRSIGKHYGVYSCEGCKGFFKRTVRKDLTYTCRDNKDCLIDKRQRNRCQYCRYQKCLAMGMKREAVQEE [S12I], the abundance fitness was -0.196 ± 0.12.

Regarding KHICAICGDRSKGKHYGVYSCEGCKGFFKRTVRKDLTYTCRDNKDCLIDKRQRNRCQYCRYQKCLAMGMKREAVQEE [S12K], the abundance fitness is 0.137 ± 0.056.

In the case of KHICAICGDRSNGKHYGVYSCEGCKGFFKRTVRKDLTYTCRDNKDCLIDKRQRNRCQYCRYQKCLAMGMKREAVQEE [S12N], the abundance fitness came to 0.091 ± 0.084.

As to KHICAICGDRSQGKHYGVYSCEGCKGFFKRTVRKDLTYTCRDNKDCLIDKRQRNRCQYCRYQKCLAMGMKREAVQEE [S12Q], the abundance fitness is 0.104 ± 0.064.

As for KHICAICGDRSHGKHYGVYSCEGCKGFFKRTVRKDLTYTCRDNKDCLIDKRQRNRCQYCRYQKCLAMGMKREAVQEE [S12H], the abundance fitness is -0.131 ± 0.082.

For KHICAICGDRSDGKHYGVYSCEGCKGFFKRTVRKDLTYTCRDNKDCLIDKRQRNRCQYCRYQKCLAMGMKREAVQEE [S12D], the abundance fitness was 0.001 ± 0.053.

As to KHICAICGDRSCGKHYGVYSCEGCKGFFKRTVRKDLTYTCRDNKDCLIDKRQRNRCQYCRYQKCLAMGMKREAVQEE [S12C], the abundance fitness was -0.657 ± 0.1.

Take KHICAICGDRSGGKHYGVYSCEGCKGFFKRTVRKDLTYTCRDNKDCLIDKRQRNRCQYCRYQKCLAMGMKREAVQEE [S12G]: the abundance fitness worked out at 0.072 ± 0.032.

In the case of KHICAICGDRSVGKHYGVYSCEGCKGFFKRTVRKDLTYTCRDNKDCLIDKRQRNRCQYCRYQKCLAMGMKREAVQEE [S12V], the abundance fitness was determined as 0.018 ± 0.036.

KHICAICGDRSLGKHYGVYSCEGCKGFFKRTVRKDLTYTCRDNKDCLIDKRQRNRCQYCRYQKCLAMGMKREAVQEE [S12L]: the abundance fitness is 0.019 ± 0.038.

On to KHICAICGDRSRGKHYGVYSCEGCKGFFKRTVRKDLTYTCRDNKDCLIDKRQRNRCQYCRYQKCLAMGMKREAVQEE [S12R], for which the abundance fitness was found to be 0.123 ± 0.032.

As for KHICAICGDRSTGKHYGVYSCEGCKGFFKRTVRKDLTYTCRDNKDCLIDKRQRNRCQYCRYQKCLAMGMKREAVQEE [S12T], the abundance fitness is 0.114 ± 0.047.

With KHICAICGDRSPGKHYGVYSCEGCKGFFKRTVRKDLTYTCRDNKDCLIDKRQRNRCQYCRYQKCLAMGMKREAVQEE [S12P], the abundance fitness was 0.062 ± 0.061.
